PMC8460662

Target: AlexaFluor594-tagged pre-formed fibrils (PFFs) of alpha-synuclein (UniProt P37840)
Test: two-colour coincidence detection (TCCD), single-molecule fluorescence; AF594-labelled α-SYN fibrils added to LTE expressing the N-GFP LB protein; fibrils at 1 µM (monomer-equivalent); stationary plate; 300 s traces, quadruplicate; Association Quotient Q

## GABARAPL1 (from UniProt Q9H0R8 1-117) (natural protein)
  relative presence of GFP species in the aggregates (fraction bound to fibrils): 0.14
